# T1: pSTAT1-Y701, pSTAT1-S727 (Homo sapiens, UniProt P42224)
# T1 construct: co-localization of endogenous STAT1 and pSTAT1 701 with the iDUX4-CTD; endogenous in cells; host or cells: MB135 human myoblasts carrying doxycycline-inducible DUX4 / DUX4-CTD / DUXB / Dux transgenes, with or without IFNG
# T1 sequence (P42224 1-750): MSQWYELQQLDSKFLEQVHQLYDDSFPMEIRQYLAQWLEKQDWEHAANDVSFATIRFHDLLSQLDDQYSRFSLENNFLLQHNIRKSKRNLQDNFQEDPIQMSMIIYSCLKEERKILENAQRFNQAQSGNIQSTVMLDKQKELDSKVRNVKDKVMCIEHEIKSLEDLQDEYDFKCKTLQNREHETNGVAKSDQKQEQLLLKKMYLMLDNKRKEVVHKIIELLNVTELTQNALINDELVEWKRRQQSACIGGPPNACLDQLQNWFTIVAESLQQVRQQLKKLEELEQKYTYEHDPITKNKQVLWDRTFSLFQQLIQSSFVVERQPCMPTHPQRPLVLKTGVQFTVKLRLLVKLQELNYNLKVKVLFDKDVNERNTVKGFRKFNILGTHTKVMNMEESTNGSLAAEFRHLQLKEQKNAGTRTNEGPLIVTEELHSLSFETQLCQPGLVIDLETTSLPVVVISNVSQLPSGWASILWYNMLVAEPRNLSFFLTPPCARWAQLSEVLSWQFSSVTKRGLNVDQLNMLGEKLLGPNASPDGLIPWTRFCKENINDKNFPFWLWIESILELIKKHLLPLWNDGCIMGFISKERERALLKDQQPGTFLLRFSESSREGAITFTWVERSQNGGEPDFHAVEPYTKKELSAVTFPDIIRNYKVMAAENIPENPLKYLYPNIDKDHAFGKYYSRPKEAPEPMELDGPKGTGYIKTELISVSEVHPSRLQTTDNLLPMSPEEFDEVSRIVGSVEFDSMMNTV
# B1: DUXB: related factor in the DUX family, doxycycline-inducible 3×FLAG-NLS-DUXB control, SEQ ID NO:106 (protein)
# chain: DYKDHDGDYKDHDIDYKDDDDKPPKRMRREPKKKRKVNLEGTSGGILQKEFWRNRIQYNQSQKDILQSWFQHDPFPDKAAREQLAKEIGVPESNIQVWFKNYRVKQRKLDYKCFSEKDQTQGHDQSQHLTQEYLPKEARQKQTFITWTQKNRLVQAFERNPFPDIATRKKLAEQTGLQESRIQMWFQKQRSLYLKKSRMEPMNLLVDDPNERPDATVGWHPINLFLPTDSSHYFSCSHSSSGHETLPPVLPSTQAPWDPFRFHVSQGPNVMIMQPTQAVQEGEKSDQPLIIPNHLLTLPILTKDLDTPTPFWLQYQEEHQNHKEHSGSGVPQVKSHSQPEPEHREQQPLNLGQFDISNILQRWDEICQALLAEWEPLKGTH
# modifications: 3xFLAG-NLS tag
# Experiments:
# [1] = system: interferon-stimulated genes IFIH1, ISG20, CXCL9, and CD74; test: IFNG induction of interferon-stimulated genes, RT-qPCR in MB135 cells with doxycycline-inducible transgenes; format: cell-based, human; conditions: MB135 cells, doxycycline-induced transgene, continuous protocol, IFNG 16 h
# Procedure: All myoblast experiments were conducted in immortalized MB135 or MB200 myoblast cell lines (isolated from a control or FSHD2 subject, respectively cultured in Ham's F-10 Nutrient Mix (Gibco) supplemented with 15% fetal bovine serum (Hyclone), 100 U/100 μg/ml penicillin/streptomycin (Gibco), 1 μM dexamethasone (Sigma), and 10 ng/ml recombinant human basic fibroblast growth factor (PeproTech). To differentiate the myoblasts to myotubes, media was changed to DMEM supplemented with 10 μg/ml insulin (Sigma) and 10 μg/ml transferrin (Sigma). Cell lines containing doxycycline-inducible transgenes were additionally cultured with 2 μg/mL puromycin (Sigma). Transgenes were induced with 1 μg/mL of doxycycline (Sigma) for 4 hours prior to other treatments for a total of 20 hrs. The Kitra-SRS cells (RRID:CVCL_YI69) were provided by Dr. H. Otani and Osaka University (Nakai et al., 2019) and were cultured in DMEM supplemented with 10% fetal bovine serum (Hyclone) and 100 U/100 μg/ml penicillin/streptomycin (Gibco). Biological replicates consisted of independent but parallel experiments, such as simultaneously stimulating three cell culture plates with IFNγ. Technical replicates consisted of repeat measurements of the same biological sample, such as loading the same biological sample in triplicate for analysis by RT-qPCR.
# Myoblasts were transfected with either (final concentrations) 10 μM 2′,3′-cGAMP (Sigma Aldrich), 2 μg/mL poly(I:C) (Invitrogen), or 1 μg/mL 3′ppp-dsRNA RIG-I ligand (Dan Stetson Lab, UW) using Lipofectamine 2000 according to manufacturer's protocol, or were stimulated with 1000U IFNβ (PeproTech) or 200 ng/ml IFNγ (R+D Systems) by addition directly to cell culture medium. After 16 hours of immune stimulation, RNA was collected from cells using the NucleoSpin RNA Kit (Macherey-Nagel) according to manufacturer's instructions. RNA samples were quantified by nanodrop and 1 μg of RNA per sample was treated with DNase I Amplification Grade (Thermo Fisher), and then synthesized into cDNA using the Superscript IV First-Strand Synthesis System, including oligo dT primers (Invitrogen). qPCR was run in 384-well plates on an Applied Biosystems QuantStudio 6 Flex Real-Time PCR System (ABI) and analyzed in Microsoft Excel.
# [2] = biological target: T1, pSTAT1-Y701, pSTAT1-S727; test: Western analysis of whole-cell extracts for STAT1 and pSTAT1; format: cell-based; conditions: doxycycline and IFNG
# Procedure: Protein samples were harvested in RIPA buffer [150 mM NaCl, 1% NP-40, 0.5% Na-deocycholate, 1% SDS, 25 mM Tris-HCl pH7.4] supplemented with protease and phosphatase inhibitor tablets (Pierce), followed by sonication in Diagenode Bioruptor. Lysate was cleared by centrifugation at 16000×g and quantified using a Pierce BCA assay (Thermo Fisher Scientific). Samples were run on NuPAGE precast polyacrylamide gels (Invitrogen) and transferred to PVDF membrane. Membranes were blocked in PBS containing 0.1% Tween-20 and 5% non-fat dry milk before overnight incubation at 4° C. with primary antibodies (see resource table for a list of antibodies used in this study). Membranes were incubated with horseradish peroxidase-conjugated secondary antibodies for 1 hour at room temperature and SuperSignal chemiluminescent substrate (Thermo Scientific) was used for detection on film with a Mini-medical 90 processor. Membranes were stripped with Restore Western Blot Stripping Buffer (Pierce).
molecule,measurement,setting,value
B1,"suppression of IFNG induction of ISGs (IFIH1, ISG20, CXCL9, CD74)",[1],did not suppress ISG induction by IFNG
same,abundance of pSTAT1 and total STAT1,[2],did not increase either form of phosphorylated STAT1

# — US20250339531A1, “DUX4 POLYPEPTIDES AND NUCLEIC ACIDS FOR TREATING INFLAMMATORY AND AUTOIMMUNE CONDITIONS” (Fred Hutchinson Cancer Center, priority 2021, published 2025)
